Measured values taken from publication PMC5385372.

Molecular target: sGFP-foldon
Assay: single-molecule fluorescence brightness analysis; GFP-fused proteins expressed in LTE (2-3 h, 27 °C), diluted about 10 times in buffer A (25 mM HEPES, 50 mM NaCl), 1-100 nanomolar, freely diffusing through a confocal volume, room temperature; also with serial dilution of the plasmid to vary the final expression level

Chain of sGFP-foldon (P10104 2-487): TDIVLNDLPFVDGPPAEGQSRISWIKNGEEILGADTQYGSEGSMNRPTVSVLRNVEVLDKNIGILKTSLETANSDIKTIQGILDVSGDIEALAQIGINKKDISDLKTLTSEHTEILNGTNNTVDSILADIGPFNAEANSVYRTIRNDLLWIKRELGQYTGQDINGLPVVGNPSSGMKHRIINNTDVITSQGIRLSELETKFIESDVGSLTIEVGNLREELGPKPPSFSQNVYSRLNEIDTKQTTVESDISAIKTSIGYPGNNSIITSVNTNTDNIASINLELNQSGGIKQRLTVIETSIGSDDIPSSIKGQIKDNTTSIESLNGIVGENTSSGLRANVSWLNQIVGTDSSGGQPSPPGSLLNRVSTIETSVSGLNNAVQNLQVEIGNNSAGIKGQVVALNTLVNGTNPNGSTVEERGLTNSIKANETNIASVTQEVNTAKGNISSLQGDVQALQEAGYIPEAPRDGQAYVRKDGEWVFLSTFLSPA

In the case of sGFP-foldon (domain or fragment), the stoichiometry N is reported as 3.
